Assay [1] deals with T1, recombinant human TNFα (human, UniProt P01375 77-233, 125I label in the receptor binding assay).
T1 construct: also called huTNFα; tumor necrosis factor alpha
The assay can be described thus: inhibition of 125I-TNFα binding to plate-coated p55-sf2, hybridoma supernatants. The procedure:
(§1) 50:1 of p55-sf2 at 0.5:g/ml in PBS was added to Optiplates to coat the wells during a one-hour incubation at 37° C. Serial dilutions of the eight TNV cell supernatants were prepared in 96-well round-bottom plates using PBS/0.1% BSA as diluent. […] The mixture was preincubated for one hour at RT. The coated Optiplates were washed to remove unbound p55-sf2 and 50:1 of the ¹²⁵I-TNFα/cell supernatant mixture was transferred to the Optiplates. After 2 hrs at RT, Optiplates were washed three times with PBS-Tween. […] of Microscint-20 was added and the cpm bound determined using the TopCount gamma counter.
A simple binding assay was done to determine whether the eight TNV mAbs contained in hybridoma cell supernatant were capable of blocking TNFα binding to receptor. The concentrations of the TNV mAbs in their respective cell supernatants were first determined by standard ELISA analysis for human IgG.

The target of assay [2] is T1, recombinant human TNFα. The assay can be described thus: cell-based or functional assay.
Assay [3] addresses T1, recombinant human TNFα. Nature of the assay: inhibition of 125I-TNFα (5 ng/ml) binding to plate-coated p55-sf2; hybridoma supernatant preincubated with 125I-TNFα, cpm bound counted. As to the method:
Varying amounts of hybridoma cell supernatants containing known amounts of TNV mAb were preincubated with a fixed concentration (5 ng/ml) of ¹²⁵I-labeled TNFα. […] The amount of TNFα that bound to the p55 receptor in the presence of the mAbs was determined after washing away the unbound material and counting using a gamma counter. Although eight TNV mAb samples were tested in these experiments, for simplicity three of the mAbs that were shown by DNA sequence analyses to be identical to one of the other TNV mAbs (see Section 5.2.2) are not shown here. Each sample was tested in duplicate. The results shown are representative of two independent experiments.
as §1

T1 sequence (P01375 77-233 limits assumed): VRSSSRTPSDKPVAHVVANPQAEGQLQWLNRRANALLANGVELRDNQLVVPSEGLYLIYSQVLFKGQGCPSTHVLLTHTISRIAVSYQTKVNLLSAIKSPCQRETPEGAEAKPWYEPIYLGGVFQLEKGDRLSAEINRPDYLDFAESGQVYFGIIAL

B1: TNV148 (GenTNV148.26.12) (antibody, human IgG1, kappa, V domains shown)
VH: QVQLVESGGGVVQPGRSLRLSCAASGFIFSSYAMHWVRQAPGNGLEWVAFMSYDGSNKKYADSVKGRFTISRDNPKNTLYLQMNSLRAEDTAVYYCARDRGIAAGGNYYYYGMDVWGQGTTVTVSS
VL: EIVLTQSPATLSLSPGERATLSCRASQSVYSYLAWYQQKPGQAPRLLIYDASNRATGIPARFSGSGSGTDFTLTISSLEPEDFAVYYCQQRSNWPPFTFGPGTKVDIKR
notes: Hybridoma-derived fully human IgG1 kappa mAb (G1m(z)); also called C420A
In the case of B1, the “fold better at blocking TNF binding to p55-sf2, against TNV118 and TNV14” value in the assay with recombinant human TNFα [1] is around 4 fold. The “neutralizing TNFα bioactivity (in vitro)” value in the assay with recombinant human TNFα [2] is 4 fold (against TNV14). Besides, the “IC50 (read off the curve)” value in the assay with recombinant human TNFα [3] was around 4 ng/mL.

B2: TNV86 (GenTNV86.14.34) (antibody, human IgG1, kappa, V domains shown)
VH: B1 VH
VL: B1 VL
notes: Hybridoma-derived fully human IgG1 kappa mAb; also called C417A
For the molecule B2, the “fold better at blocking TNF binding to p55-sf2, against TNV118 and TNV14” value with recombinant human TNFα [1] was around 4 fold.

Values taken from US20230040065A1 (Janssen / Centocor, published 2023).
